Values of other authors, collected in patent publication US20260217837A1, “FGFR3 BINDING MOLECULES AND METHODS OF USE THEREOF” (Regeneron Pharmaceuticals, Inc., priority 2023, published 2026).
Positions count from the first letter of the chain named. Names and notes keep the numbering of the source.

B1: KE58: anti-FGFR3 IIIb and IIIc antibody of WO 2022/040560 A1; SEQ ID NO: 78/79 (antibody, V domains shown)
VH: EVQLQQSGPDLVKPGASVKISCKASGYTVTDYYMNWVKQSHGKSLEWIGDINPNNGVTTYNQKFKDKATLTVDKSSSTAYMELRSLTSEDSAVYYCAREEDFDGFDYWGQGTTLTVSS
VL: DIVMTQSHKFMSTSVGDRVSITCKASQDVSTGVAWYQQKPGQSPQLLIYWASTRHTGVPDRFTGSGSGTDYILTIRSVQAEDLALYYCQQHYSTPLTFGAGTKLELK
B2: MS-Pro-26: anti-FGFR3 Ig-like domain 3 antibody of WO 2002/102972 A2; SEQ ID NO: 36/37 (antibody, V domains shown)
VH: QVQLVQSGAEVKKPGASVKVSCKASGYTFTSYYMHWVRQAPGQGLEWMGWINPNSGGTNYAQKFQGRVTMTRDTSISTAYMELSSLRSEDTAVYYCARGYWYAYFTYINYGYFDNWGQGTLVTVSS
VL: DIALTQPASVSGSPGQSITISCTGTSSDVGGYNYVSWYQQHPGKAPKLMIYDVSNRPSGVSNRFSGSKSGNTASLTISGLQAEDEADYYCQSYDNNSDWFGGGTKLTVLGQ
B3: KE35: anti-FGFR3 IIIb and IIIc antibody of WO 2022/040560 A1; SEQ ID NO: 74/75 (antibody, V domains shown)
VH: EVQLQQSGPELVKPGASVKMSCKASGYTFTDYNMHWVKQSHGKSLEWIGYINPNNGGTRYNQKFKGKATLTVNKSSSTAYMELRSLTSEDSAVYYCARERDYDGAMDYWGQGTSVTVSS
VL: DIQMTQSPSSLSASLGGKVTITCKASQDINKFIAWYQHKPGKGPRLLIHYTSTLQPGIPSRFSGSGSGRDYSFSISNLEPEDIATYYCLQYDNLLWTFGGGTKLEIK
B4: KE42: anti-FGFR3 IIIb and IIIc antibody of WO 2022/040560 A1; SEQ ID NO: 76/77 (antibody, V domains shown)
VH: B3 VH with E46Q, R59N, K63N, G66D, S77T, A105S, Y108F
VL: B3 VL with Y87F
B5: KE63: anti-FGFR3 IIIb and IIIc antibody of WO 2022/040560 A1; SEQ ID NO: 80/81 (antibody, V domains shown)
VH: QVQLQQSGAELVRPGASVTLSCKASGSTFSDFEIHWVKQTPVHGLEWIGGIDPETGGTAYNQKFKGKAILTADRSSSTAYMELRSLTSEDSAVYYCTRNYDGYSQTMDYWGQGTSVTVSS
VL: NIMMTQSPSSLAVSAGEKVTMSCKSSQSVLYSSNQKNYLAWYQQKPGQSPKLLIYWASTRESGVPDRFTGSGSGTDFTLTISSVQAEDLAVYYCHQYLSSYTFGGGTKLEMK
B6: KE94: anti-FGFR3 IIIb and IIIc antibody of WO 2022/040560 A1; SEQ ID NO: 82/83 (antibody, V domains shown)
VH: B5 VH with S30T, G50A, D73V, R74K, E82G, Q105R
VL: B5 VL with T78S, T80S, A86T, K108R
B7: MS-Pro-28: anti-FGFR3 Ig-like domain 3 antibody of WO 2002/102972 A2; SEQ ID NO: 38/39 (antibody, V domains shown)
VH: QVQLVQSGAEVKKPGSSVKVSCKASGGTFSSYAISWVRQAPGQGLEWMGGIIPIFGTANYAQKFQGRVTITADESSTAYMELSSLRSEDTAVYYCARGGGWVSHGYYYLFDLWGQGTLVTVSS
VL: DIQMTQSPSSLSASVGDRVTITCRASQGISSYLAWYQQKPGKAPKLLIYAASSLQSGVPSRFSGSGSGTDFTLTISSLQPEDFAVYYCFQYGSIPPTFGQGTKVEIKRT
B8: MS-Pro-11: anti-FGFR3 Ig-like domain 3 antibody of WO 2002/102972 A2; SEQ ID NO: 30/31 (antibody, V domains shown)
VH: QVQLVQSGAEVKKPGASVKVSCKASGYTFTSYYMHWVRQAPGQGLEWMGWINPNSGGTNYAQKFQGRVTMTRDTSISTAYMELSSLRSEDTAVYYCARYYGSSLYHYVFGGFIDYWGQGTLVTVSS
VL: DIALTQPASVSGSPGQSITISCTGTSSDVGGYNYVSYQQHPGKAPKLMIYDVSNRPSGVSNRFSGSKSGNTASLTISGLQAEDEADYYCQSHHFYEVFGGGTKLTVLGQ
B9: MS-Pro-29: anti-FGFR3 Ig-like domain 3 antibody of WO 2002/102972 A2; SEQ ID NO: 40/41 (antibody, V domains shown)
VH: QVQLVQSGAEVKKPGASVKVSCKASGYTFTSYYMHWVRQAPGQGLEWMGWINPNSGGTNYAQKFQGRVTMTRDTSISTAYMELSSLRSEDTAVYYCARTWQYSYFYYLDGGYYFDIWGQGTLVTVSS
VL: DIVLTQSPATLSLSPGERATLSCRASQSVSSSYLAWYQQKPGQAPRLLIYGASSRATGVPARFSGSGSGTDFTLTISSLEPEDFATYYCQQTNNAPVTFGQGTKVEIKRT
B10: FGA0002: anti-FGFR3 (S249C mutant) antibody of WO 2021/010326 A1; SEQ ID NO: 84/85 (antibody, V domains shown)
VH: QELVESGGGLVQPGGSLKLSCKASGIDFSSYGISWVRQAPGKGLEWIAYIVPGFGIRNYANSVKGRFTISSDNAQNTVFLQMTSLTASDTATYFCARVPQYASSSGYYLPFNLWGPGTLVTVSS
VL: ALVMTQTPSPVSAAVGGTVTINCQASEDIYYNLAWFQQKPGQPPKLLIYRASTLASGVPSRFSGSGSGTEFTLTISDVQCDDAATYYCLGVYTYISADGNAFGGGTEVVVK
B11: MS-Pro-2: anti-FGFR3 Ig-like domain 2 antibody of WO 2002/102972 A2; SEQ ID NO: 24/25 (antibody, V domains shown)
VH: QVQLVQSGAEVKKPGASVKVSCKASGYTFTSYYMHWVRQAPGQGLEWMGWINPNSGGTNYAQKFQGRVTMTRDTSISTAYMELSSLRSEDTAVYYCARDFLGYEFDYWGQGTLVTVSS
VL: DIELTQPPSVSVAPGQTARISCSGDALGDKYASWYQQKPGQAPVLVIYDDSDRPSGIPERFSGSNSGNTATLTISGTQAEDEADYYCQSYDYSADYVFGGGTKLTVLGQ
B12: FGA0007: anti-FGFR3 (S249C mutant) antibody of WO 2021/010326 A1; SEQ ID NO: 88/89 (antibody, V domains shown)
VH: QSVEESGGRLVTPGTPLTLTCTVSGFSLSSYPMSWVRQAPGKGLEWIGIISSSGRTYYASWAKGRFTISKASSTTAALKMTSLTTEDTATYFCARGGVYKYDDYGDYVLNLWGRGTLVTVSS
VL: AIEMTQTPFSVSAAVGGTVTINCQASENIYSNLAWYQQKPGQPPKLLIYAASYLASGVPSRFKGSGSGTDYTLTISGVQCADAATYYCQCTLYSSTYGVAFGGGTEVVVK
B13: FGA0005: anti-FGFR3 (S249C mutant) antibody of WO 2021/010326 A1; SEQ ID NO: 86/87 (antibody, V domains shown)
VH: QSLEESGGRLVTPGTPLTLTCTASGFSLSTYWICWVRQAPGEGLEWIGYISSSGNTYYASWAKGRFTISKTSSTTVDLKMTSLTTEDTATYFCGGHNSDYITGWALDPWGPGTLVTVSS
VL: AAVLTQTASPMSAAVGGTVTINCQSSKSVYRDKWLSWFQQKPGQPPKLLIYGASNLASGVSSRFKGSGSGTQFTLTISDVQCDDAATYYCLGGYSDNSEDAFGGGTEVVVK

tested on: FGFR3; details: Exemplary FGFR3 D3 binding sequences; antibodies of cited PCT publications

Q: With B1 as the molecule, how does the Activity read?
A: Antagonistic

Q: Which Activity does the source give for B2 here?
A: Antagonistic

Q: For B3, which Activity is on record?
A: Antagonistic

Q: With B4 as the molecule, how does the Activity read?
A: Antagonistic

Q: Which Activity does the source give for B5 here?
A: Antagonistic

Q: For B6, which Activity is on record?
A: Antagonistic

Q: Which Activity does the source give for B7 here?
A: Antagonistic

Q: For B8, which Activity is on record?
A: Antagonistic

Q: For B9, which Activity is on record?
A: Antagonistic

same assay, conditions: Table T-1, exemplary FGFR3 parental antibodies of cited publications

Q: Which Activity does the source give for B1 here?
A: Antagonistic

Q: Which Activity does the source give for B2 here?
A: Antagonistic

Q: With B3 as the molecule, how does the Activity read?
A: Antagonistic

Q: For B4, which Activity is on record?
A: Antagonistic

Q: With B5 as the molecule, how does the Activity read?
A: Antagonistic

Q: Which Activity does the source give for B6 here?
A: Antagonistic

Q: Which Activity does the source give for B7 here?
A: Antagonistic

Q: For B8, which Activity is on record?
A: Antagonistic

Q: For B10, which Activity is on record?
A: Antagonistic

Q: With B9 as the molecule, how does the Activity read?
A: Antagonistic

Q: Which Activity does the source give for B11 here?
A: Antagonistic

Q: For B12, which Activity is on record?
A: Antagonistic

Q: Which Activity does the source give for B13 here?
A: Antagonistic
